Changes are numbered by the printed parent chain. Names may count otherwise.
B1: CE115HA000 W33A (antibody, name in Kabat numbering, V domains shown)
VH: QVQLVESGGGVVQPGRSLRLSCAASGFTFSNAAMHWVRQAPGKGLEWVAQIKAKSNNYATYYAESVKGRFTISRDDSKNSLYLQMNSLKTEDTAVYYCRYVHYGAYYGVDAWGQGTTVTVSS
VL: DIVMTQSPLSLPVTPGEPASISCRSSQSLVHSNRNTYLHWYQQKPGQAPRLLIYKVSNRFSGVPDRFSGSGSGTDFTLKISRVEAEDVGVYYCGQGTQVPYTFGQGTKLEIK
B2: CE115HA000 Y55D (antibody, name in Kabat numbering, V domains shown)
VH: B1 VH with A33W, Y58D
VL: B1 VL
B3: CE115HA000 Y100aS (antibody, name in Kabat numbering, V domains shown)
VH: B1 VH with A33W, Y107S
VL: B1 VL
B4: CE115HA000 W33L (antibody, name in Kabat numbering, V domains shown)
VH: B1 VH with A33L
VL: B1 VL
B5: CE115HA000 Y58N (antibody, name in Kabat numbering, V domains shown)
VH: B1 VH with A33W, Y61N
VL: B1 VL
B6: CE115HA000 V100cA (antibody, name in Kabat numbering, V domains shown)
VH: B1 VH with A33W, V109A
VL: B1 VL
B7: CE115HA000 Y100W (antibody, name in Kabat numbering, V domains shown)
VH: B1 VH with A33W, Y106W
VL: B1 VL
B8: CE115HA000 Y100P (antibody, name in Kabat numbering, V domains shown)
VH: B1 VH with A33W, Y106P
VL: B1 VL
B9: CE115HA000 Y58L (antibody, name in Kabat numbering, V domains shown)
VH: B1 VH with A33W, Y61L
VL: B1 VL
B10: CE115HA000 Y59D (antibody, name in Kabat numbering, V domains shown)
VH: B1 VH with A33W, Y62D
VL: B1 VL
B11: CE115HA000 Y58Q (antibody, name in Kabat numbering, V domains shown)
VH: B1 VH with A33W, Y61Q
VL: B1 VL
B12: CE115HA000 Y58D (antibody, name in Kabat numbering, V domains shown)
VH: B1 VH with A33W, Y61D
VL: B1 VL
B13: CE115HA000 Y100aH (antibody, name in Kabat numbering, V domains shown)
VH: B1 VH with A33W, Y107H
VL: B1 VL
B14: CE115HA000 Y97P (antibody, name in Kabat numbering, V domains shown)
VH: B1 VH with A33W, Y103P
VL: B1 VL
B15: CE115HA000 Y58K (antibody, name in Kabat numbering, V domains shown)
VH: B1 VH with A33W, Y61K
VL: B1 VL
B16: CE115HA000 Y100aG (antibody, name in Kabat numbering, V domains shown)
VH: B1 VH with A33W, Y107G
VL: B1 VL
B17: CE115HA000 V95S (antibody, name in Kabat numbering, V domains shown)
VH: B1 VH with A33W, V101S
VL: B1 VL
B18: CE115HA000 Y100D (antibody, name in Kabat numbering, V domains shown)
VH: B1 VH with A33W, Y106D
VL: B1 VL
B19: CE115HA000 Y58S (antibody, name in Kabat numbering, V domains shown)
VH: B1 VH with A33W, Y61S
VL: B1 VL
B20: CE115HA000 Y59E (antibody, name in Kabat numbering, V domains shown)
VH: B1 VH with A33W, Y62E
VL: B1 VL
B21: CE115HA000 Y100V (antibody, name in Kabat numbering, V domains shown)
VH: B1 VH with A33W, Y106V
VL: B1 VL
B22: CE115HA000 W33D (antibody, name in Kabat numbering, V domains shown)
VH: B1 VH with A33D
VL: B1 VL
B23: CE115HA000 W33H (antibody, name in Kabat numbering, V domains shown)
VH: B1 VH with A33H
VL: B1 VL
B24: CE115HA000 Y58A (antibody, name in Kabat numbering, V domains shown)
VH: B1 VH with A33W, Y61A
VL: B1 VL
B25: CE115HA000 Y100A (antibody, name in Kabat numbering, V domains shown)
VH: B1 VH with A33W, Y106A
VL: B1 VL
B26: CE115HA000 Y55S (antibody, name in Kabat numbering, V domains shown)
VH: B1 VH with A33W, Y58S
VL: B1 VL
B27: CE115HA000 Y55G (antibody, name in Kabat numbering, V domains shown)
VH: B1 VH with A33W, Y58G
VL: B1 VL
B28: CE115HA000 Y59S (antibody, name in Kabat numbering, V domains shown)
VH: B1 VH with A33W, Y62S
VL: B1 VL
B29: CE115HA000 Y59A (antibody, name in Kabat numbering, V domains shown)
VH: B1 VH with A33W, Y62A
VL: B1 VL
B30: CE115HA000 V100cP (antibody, name in Kabat numbering, V domains shown)
VH: B1 VH with A33W, V109P
VL: B1 VL
B31: CE115HA000 Y97D (antibody, name in Kabat numbering, V domains shown)
VH: B1 VH with A33W, Y103D
VL: B1 VL
B32: CE115HA000 V95D (antibody, name in Kabat numbering, V domains shown)
VH: B1 VH with A33W, V101D
VL: B1 VL
B33: CE115HA000 T57N (antibody, name in Kabat numbering, V domains shown)
VH: B1 VH with A33W, T60N
VL: B1 VL
B34: CE115HA000 Y100Q (antibody, name in Kabat numbering, V domains shown)
VH: B1 VH with A33W, Y106Q
VL: B1 VL
B35: CE115HA000 W33Y (antibody, name in Kabat numbering, V domains shown)
VH: B1 VH with A33Y
VL: B1 VL
B36: CE115HA000 V11L (antibody, name in Kabat numbering, V domains shown)
VH: B1 VH with V11L, A33W
VL: B1 VL
B37: CE115HA000 Y100aQ (antibody, name in Kabat numbering, V domains shown)
VH: B1 VH with A33W, Y107Q
VL: B1 VL
B38: CE115HA000 Y100aF (antibody, name in Kabat numbering, V domains shown)
VH: B1 VH with A33W, Y107F
VL: B1 VL
B39: CE115HA000 W33F (antibody, name in Kabat numbering, V domains shown)
VH: B1 VH with A33F
VL: B1 VL
B40: GLS3000 F55K (antibody, IgG1, name in Kabat numbering, V domains shown)
VH: B1 VH with A33W
VL: B1 VL with F60K
B41: GLS3000 G89W (antibody, IgG1, name in Kabat numbering, V domains shown)
VH: B1 VH with A33W
VL: B1 VL with G94W
B42: GLS3000 G89A (antibody, IgG1, name in Kabat numbering, V domains shown)
VH: B1 VH with A33W
VL: B1 VL with G94A

The binders below were run against T1, CD3ε homodimer protein (human, UniProt P07766 23-126, limits assumed, sulfo-tag or biotin label in some ECL assays) (assay: SPR, CD3ε homodimer on chip;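 further: biacore SPR with antibody variants flowed as analyte over amine-coupled CD3ε homodimer on a CM chip, bound amount of each single-residue H chain variant over that of parent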).
T1 construct: also called human CD3ε homodimer protein; CD3 (CD3ε)
T1 sequence (P07766 23-126 limits assumed): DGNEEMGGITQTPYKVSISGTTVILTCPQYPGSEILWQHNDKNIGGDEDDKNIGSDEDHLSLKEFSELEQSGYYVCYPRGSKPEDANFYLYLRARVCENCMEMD
Protocol: An appropriate amount of CD3ε homodimer protein was immobilized onto Sensor chip CM4 (GE Healthcare Japan Corp.) by the amine coupling method. Then, the antibody having an appropriate concentration was injected thereto as an analyte and allowed to interact with the CD3ε homodimer protein on the sensor chip. Then, the sensor chip was regenerated by the injection of 10 mmol/L glycine-HCl (pH 1.5). The assay was conducted at 25° C., and HBS-EP+ (GE Healthcare Japan Corp.) was used as a running buffer. […] Each parameter was calculated using Biacore T200 Evaluation Software (GE Healthcare Japan Corp.).
Specifically, when the amount of the antibody comprising CE115HA000 bound was defined as X and the amount of the H chain one-amino acid altered form bound was defined as Y, a value of Z (ratio of amounts bound)=Y/X was used.

Compared with B1, B2 is higher in “ratio of amounts bound vs CE115HA000” value: 0.1 for the first, 0.45 for the second.

First: B3
Second: B4
The “ratio of amounts bound vs CE115HA000” value of the first is higher: 0.64 for the first, 0.1 for the second.

Going from B5 to B6, the “ratio of amounts bound vs CE115HA000” value rises from 0.33 to 0.48.

Going from B7 to B8, the “ratio of amounts bound vs CE115HA000” value falls from 1.03 to 0.48.

Compared with B9, B10 is higher in “ratio of amounts bound vs CE115HA000” value: 0.27 for the first, 0.7 for the second.

Compared with B11, B12 is lower in “ratio of amounts bound vs CE115HA000” value: 0.19 for the first, 0.11 for the second.

First: B13
Second: B14
The “ratio of amounts bound vs CE115HA000” value of the first is higher: 0.9 for the first, 0.11 for the second.

Compared with B15, B16 is higher in “ratio of amounts bound vs CE115HA000” value: 0.3 for the first, 1.23 for the second.

First: B17
Second: B18
The “ratio of amounts bound vs CE115HA000” value of the first is lower: 0.22 for the first, 0.52 for the second.

Compared with B19, B20 is higher in “ratio of amounts bound vs CE115HA000” value: 0.18 for the first, 0.66 for the second.

Going from B21 to B22, the “ratio of amounts bound vs CE115HA000” value falls from 0.8 to 0.1.

Compared with B23, B24 is higher in “ratio of amounts bound vs CE115HA000” value: 0.13 for the first, 0.22 for the second.

Going from B25 to B26, the “ratio of amounts bound vs CE115HA000” value falls from 9.9 to 0.26.

Going from B27 to B28, the “ratio of amounts bound vs CE115HA000” value rises from 0.55 to 0.94.

First: B29
Second: B30
The “ratio of amounts bound vs CE115HA000” value of the first is lower: 0.35 for the first, 0.8 for the second.

B31 and B32 are the same in “ratio of amounts bound vs CE115HA000” value: 0.24 for the first, 0.24 for the second.

Going from B33 to B34, the “ratio of amounts bound vs CE115HA000” value falls from 0.97 to 0.8.

Going from B35 to B36, the “ratio of amounts bound vs CE115HA000” value rises from 0.66 to 1.

First: B37
Second: B38
The “ratio of amounts bound vs CE115HA000” value of the first is lower: 0.56 for the first, 0.87 for the second.

B39 was tested, and the “ratio of amounts bound vs CE115HA000” value was 0.65.

The binders below were run against T2, CD3ε homodimer protein (human, UniProt P07766 23-126, limits assumed) (assay: SPR, CD3e immobilized).
T2 construct: Whole entry named for the human CD3 epsilon chain
T2 sequence (P07766 23-126 limits assumed): as above
Protocol: Each one-amino acid altered form constructed, expressed, and purified in the paragraph (6-2) was evaluated using Biacore T200 (GE Healthcare Japan Corp.). An appropriate amount of CD3ε homodimer protein was immobilized onto Sensor chip CM4 (GE Healthcare Japan Corp.) by the amine coupling method. Then, the antibody having an appropriate concentration was injected thereto as an analyte and allowed to interact with the CD3ε homodimer protein on the sensor chip. Then, the sensor chip was regenerated by the injection of 10 mmol/L glycine-HCl (pH 1.5). The assay was conducted at 25° C., and HBS-EP+ (GE Healthcare Japan Corp.) was used as a running buffer. […] Each parameter was calculated using Biacore T200 Evaluation Software (GE Healthcare Japan Corp.).
Specifically, when the amount of the GLS3000-containing antibody bound was defined as X and the amount of the L chain one-amino acid altered form bound was defined as Y, a value of Z (ratio of amounts bound)=Y/X was used.

Compared with B40, B41 is higher in “KD ratio to GLS3000” value: 1.22 for the first, 2.3 for the second.

With B42 the “KD ratio to GLS3000” value was 1.3.

— patent US20220040297A1 (Chugai, published 2022)
